Results from US20180037638A1 (SORRENTO THERAPEUTICS, published 2018).

How the values were obtained:
AIP1 = AIP1 (Staphylococcus aureus); experiment: cell-based or functional assay
AIP4 = AIP4 (Staphylococcus aureus); experiment: cell-based or functional assay

B1: C7 (antibody, V domains shown)
VH: EVQLVQSGAEMKKPGASMKVSCKTSGYTFARKYMHWLRQAPGQGLEWMGIINPTGGTKSYAPKFQGRVTMTSDMSTNTVYMELNSLRSEDTAVYYCVSDDEEPVWGQGTMVTVSS
VL: QSALTQPPSVSKGLRQTATLTCTGNSNNVGSQGAAWLQQHQGHPPKVLSYRNNNRPSGISERFSASRSGNTASLTITGLQPEDEGDYYCSAWDSSLSAPVFGGGTKLTVL
Inhibition of AIP1 QS (IC50; nM), agr-driven YFP reporter strain USA300-LAC (AIP1): 110 nM
Inhibition of AIP4 QS (IC50; nM), agr-driven YFP reporter strain MnTG (AIP4): 86 nM

B2: E7 (antibody, V domains shown)
VH: EVQLVQSGAEVKKPGASVRVSCKTSGYSFTSYDINWVRQTTGQGLEWMGWVNPTSGSTGYAQKFQGRVTMTANTAINTAYMELRDLRSEDTAVYFCVRDVPFDPWGQGTLVTVSS
VL: LQSVLTQPASVSGSPGQSITISCTGTSSDVGKYTFVSWYQQHPGKAPKVMVYEVNKRPLGVSPRFSGSKSGNTAYLTISGLQAEDEADYYCSSYTSSSTVVFGGGTKLTVL
Inhibition of AIP1 QS (IC50; nM), agr-driven YFP reporter strain USA300-LAC (AIP1): 91.1 nM
Inhibition of AIP4 QS (IC50; nM), agr-driven YFP reporter strain MnTG (AIP4): 53.5 nM
